The text below walks through data of US20160272683A1 (Novo Nordisk, published 2016).

The target in assay [1] is T1, human calcitonin receptor (human, UniProt P30988 25-474).
T1 construct: whole, on cells; Assay VII: membranes on SPA beads; also called hCT-R; hCTR
T1 sequence (looked up): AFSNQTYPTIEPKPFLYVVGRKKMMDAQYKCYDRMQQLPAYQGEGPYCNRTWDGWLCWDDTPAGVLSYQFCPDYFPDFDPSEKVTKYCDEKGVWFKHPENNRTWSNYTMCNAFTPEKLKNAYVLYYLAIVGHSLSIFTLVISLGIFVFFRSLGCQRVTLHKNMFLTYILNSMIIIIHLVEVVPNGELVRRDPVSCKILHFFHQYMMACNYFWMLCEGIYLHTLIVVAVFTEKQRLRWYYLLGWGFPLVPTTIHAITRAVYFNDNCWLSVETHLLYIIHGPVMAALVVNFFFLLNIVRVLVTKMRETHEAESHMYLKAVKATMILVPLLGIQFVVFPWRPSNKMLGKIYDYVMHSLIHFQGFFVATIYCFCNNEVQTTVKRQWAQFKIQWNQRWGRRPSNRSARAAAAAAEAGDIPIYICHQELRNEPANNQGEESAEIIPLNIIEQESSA
Nature of the assay: SPA competition vs 125I-calcitonin, membranes with human CTR (Assay VII). The method, then: The binding assay was performed using scintillation proximity assay (SPA) beads (RPNQ0001) from PerkinElmer® and cell membranes prepared from a BHK tk'ts 13 cell line was stably transfected with the human calcitonin receptor and a CRE-responsive luciferase reporter gene. Membranes were prepared in the following way; the cells were rinsed with PBS and incubated with Versene for approximately 5 min before harvesting. The cells were flushed with PBS and the cell-suspension was centrifuged for 5 min at 1000 rpm.
(§1) EDTA (pH 7.4, buffer 2). The resulting pellet was resuspended in buffer 2 and protein concentration was tested (BCA protein Assay, Pierce). The homogenate was kept cold during the whole procedure. The membranes were kept at −80° C. until use. Assay was performed in a 384 well Optiplate (PerkinElmer®) in a total volume of 40 ul. Membranes were mixed with SPA beads. Final concentration of membranes 35 ng/μL final and Final concentration of SPA beads was 0.05 mg/well. Test-compounds were dissolved in DMSO and further diluted in assay buffer (50 mM Hepes, pH 7.4, 1 mM CaCl2, 5 mM MgCl2, 0.1% OA and 0.02% Tween20). […] Samples were analyzed on TopCounter™ (Packard). The IC₅₀ was calculated using (one site binding competition analysis) GraphPad Prism5 as a measure of receptor affinity.

In assay [2] the target is T2, human amylin receptor (amylin 3(a) receptor: human calcitonin receptor with RAMP-3) (human, UniProt P30988 25-474; O60896 24-148, limits assumed).
T2 construct: whole, on cells; Assay V: membranes of the Amylin 3(a)/CRE-luc BHK cells on SPA beads; also called hAmylin-R
T2 sequence (looked up) 1: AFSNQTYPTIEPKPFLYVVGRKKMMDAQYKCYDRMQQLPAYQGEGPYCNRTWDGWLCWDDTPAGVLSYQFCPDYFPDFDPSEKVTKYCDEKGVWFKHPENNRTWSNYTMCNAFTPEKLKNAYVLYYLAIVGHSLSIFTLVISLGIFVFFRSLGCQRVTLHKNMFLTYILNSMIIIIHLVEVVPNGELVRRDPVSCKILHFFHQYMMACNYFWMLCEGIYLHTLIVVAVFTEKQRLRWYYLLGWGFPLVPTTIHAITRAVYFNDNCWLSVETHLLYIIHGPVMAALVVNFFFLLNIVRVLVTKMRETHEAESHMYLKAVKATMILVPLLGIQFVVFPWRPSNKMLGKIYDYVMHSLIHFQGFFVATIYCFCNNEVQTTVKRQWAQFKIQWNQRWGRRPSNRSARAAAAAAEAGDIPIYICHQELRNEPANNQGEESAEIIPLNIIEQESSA
T2 sequence (looked up) 2: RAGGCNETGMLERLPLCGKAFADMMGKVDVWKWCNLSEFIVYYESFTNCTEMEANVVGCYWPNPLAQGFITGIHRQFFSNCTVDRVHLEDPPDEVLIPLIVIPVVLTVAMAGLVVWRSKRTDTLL
The experiment in a line: SPA competition vs 125I-rat amylin, membranes with human CTR + RAMP-3 (Assay V). The method, then:
as §1, with “The binding assay was performed using scintillation proximity assay (SPA) beads (RPNQ0001) from PerkinElmer and cell membranes from the Amylin 3(a)/CRE-luc cells (as described in Assay (II)) were used. Membranes were prepared in the following way; the cells were rinsed with PBS and incubated with Versene for approximately 5 min before harvesting. The cells were flushed with PBS and the cell-suspension was centrifuged for 5 min at 1000 rpm. […] The” for “EDTA (pH 7.4, buffer 2). The”, “use. The assay” for “use. Assay”, “Optiplate (PerkinElmer)” for “Optiplate (PerkinElmer®)”, “and” for “and Final concentration of”

Numbered stars: 1 amine (or outer) side, 2 acyl side, 3 side chain; on linkers, the order of the positions; unused ones are H or OH. * marks the point of attachment. C20 diacid = O=C(O)CCCCCCCCCCCCCCCCCCC(=O)*; C18 diacid = O=C(O)CCCCCCCCCCCCCCCCC(=O)*; γGlu = O=C(O)[C@H](CCC(=O)[*:2])N[*:1]; AEEA = NCCOCCOCC(=O)O

B1: [N-terminal(C20 diacid-gGlu-2xOEG), des1, 4G, 9V, 15Q, 21Q, 23Y, 30S, 31G, 32T, 33Y]mimylin (peptide)
peptide: {C20 diacid-γGlu-AEEA-AEEA}-ASGLSTAVLGRLSQELHELQTYPRTETGSGTY-NH2
SMILES: CC(C)C[C@H](NC(=O)CNC(=O)[C@H](CO)NC(=O)[C@H](C)NC(=O)COCCOCCNC(=O)COCCOCCNC(=O)CC[C@H](NC(=O)CCCCCCCCCCCCCCCCCCC(=O)O)C(=O)O)C(=O)N[C@@H](CO)C(=O)N[C@H](C(=O)N[C@@H](C)C(=O)N[C@H](C(=O)N[C@@H](CC(C)C)C(=O)NCC(=O)N[C@@H](CCCNC(=N)N)C(=O)N[C@@H](CC(C)C)C(=O)N[C@@H](CO)C(=O)N[C@@H](CCC(N)=O)C(=O)N[C@@H](CCC(=O)O)C(=O)N[C@@H](CC(C)C)C(=O)N[C@@H](Cc1c[nH]cn1)C(=O)N[C@@H](CCC(=O)O)C(=O)N[C@@H](CC(C)C)C(=O)N[C@@H](CCC(N)=O)C(=O)N[C@H](C(=O)N[C@@H](Cc1ccc(O)cc1)C(=O)N1CCC[C@H]1C(=O)N[C@@H](CCCNC(=N)N)C(=O)N[C@H](C(=O)N[C@@H](CCC(=O)O)C(=O)N[C@H](C(=O)NCC(=O)N[C@@H](CO)C(=O)NCC(=O)N[C@H](C(=O)N[C@@H](Cc1ccc(O)cc1)C(N)=O)[C@@H](C)O)[C@@H](C)O)[C@@H](C)O)[C@@H](C)O)C(C)C)[C@@H](C)O
notes: mimylin derivative; des1 = residue 1 deleted; also called Ex. #120; 120
As usually defined, the IC50 is the point on the concentration scale where inhibition reaches its midpoint. Take B1: the IC50 was 0.091 nM in assay [1] and 0.166 nM in assay [2].

B2: [N-terminal(C20 diacid-gGlu), des1, 4G, 9T, 15Q, 21Q, 23Y, 25P, 30S, 31G, 32T, 33Y]mimylin (peptide)
peptide: {C20 diacid-γGlu}-ASGLSTATLGRLSQELHELQTYPPTETGSGTY-NH2
SMILES: CC(C)C[C@H](NC(=O)CNC(=O)[C@H](CO)NC(=O)[C@H](C)NC(=O)CC[C@H](NC(=O)CCCCCCCCCCCCCCCCCCC(=O)O)C(=O)O)C(=O)N[C@@H](CO)C(=O)N[C@H](C(=O)N[C@@H](C)C(=O)N[C@H](C(=O)N[C@@H](CC(C)C)C(=O)NCC(=O)N[C@@H](CCCNC(=N)N)C(=O)N[C@@H](CC(C)C)C(=O)N[C@@H](CO)C(=O)N[C@@H](CCC(N)=O)C(=O)N[C@@H](CCC(=O)O)C(=O)N[C@@H](CC(C)C)C(=O)N[C@@H](Cc1c[nH]cn1)C(=O)N[C@@H](CCC(=O)O)C(=O)N[C@@H](CC(C)C)C(=O)N[C@@H](CCC(N)=O)C(=O)N[C@H](C(=O)N[C@@H](Cc1ccc(O)cc1)C(=O)N1CCC[C@H]1C(=O)N1CCC[C@H]1C(=O)N[C@H](C(=O)N[C@@H](CCC(=O)O)C(=O)N[C@H](C(=O)NCC(=O)N[C@@H](CO)C(=O)NCC(=O)N[C@H](C(=O)N[C@@H](Cc1ccc(O)cc1)C(N)=O)[C@@H](C)O)[C@@H](C)O)[C@@H](C)O)[C@@H](C)O)[C@@H](C)O)[C@@H](C)O
notes: mimylin derivative; des1 = residue 1 deleted
With B2, the IC50 in assay [1] stood at 0.053 nM; in assay [2], 0.216 nM.

B3: [N-terminal(C18 diacid-gGlu), des1, 4G, 15Q, 21Q, 23Y, 30S, 31G, 32T, 33Y]mimylin (peptide)
peptide: {C18 diacid-γGlu}-ASGLSTAALGRLSQELHELQTYPRTETGSGTY-NH2
SMILES: CC(C)C[C@H](NC(=O)CNC(=O)[C@H](CO)NC(=O)[C@H](C)NC(=O)CC[C@H](NC(=O)CCCCCCCCCCCCCCCCC(=O)O)C(=O)O)C(=O)N[C@@H](CO)C(=O)N[C@H](C(=O)N[C@@H](C)C(=O)N[C@@H](C)C(=O)N[C@@H](CC(C)C)C(=O)NCC(=O)N[C@@H](CCCNC(=N)N)C(=O)N[C@@H](CC(C)C)C(=O)N[C@@H](CO)C(=O)N[C@@H](CCC(N)=O)C(=O)N[C@@H](CCC(=O)O)C(=O)N[C@@H](CC(C)C)C(=O)N[C@@H](Cc1c[nH]cn1)C(=O)N[C@@H](CCC(=O)O)C(=O)N[C@@H](CC(C)C)C(=O)N[C@@H](CCC(N)=O)C(=O)N[C@H](C(=O)N[C@@H](Cc1ccc(O)cc1)C(=O)N1CCC[C@H]1C(=O)N[C@@H](CCCNC(=N)N)C(=O)N[C@H](C(=O)N[C@@H](CCC(=O)O)C(=O)N[C@H](C(=O)NCC(=O)N[C@@H](CO)C(=O)NCC(=O)N[C@H](C(=O)N[C@@H](Cc1ccc(O)cc1)C(N)=O)[C@@H](C)O)[C@@H](C)O)[C@@H](C)O)[C@@H](C)O)[C@@H](C)O
notes: mimylin derivative; des1 = residue 1 deleted; also called Ex. #110; 110
For B3, the values for the IC50 in assay [1] and in assay [2] were 0.057 nM and 0.122 nM, respectively.

B4: [N-terminal(C20 diacid-gGlu), des1, 4G, 8L, 9V, 15Q, 21Q, 23Y, 30S, 31Q, 32T, 33Y]mimylin (peptide)
peptide: {C20 diacid-γGlu}-ASGLSTLVLGRLSQELHELQTYPRTETGSQTY-NH2
SMILES: CC(C)C[C@H](NC(=O)CNC(=O)[C@H](CO)NC(=O)[C@H](C)NC(=O)CC[C@H](NC(=O)CCCCCCCCCCCCCCCCCCC(=O)O)C(=O)O)C(=O)N[C@@H](CO)C(=O)N[C@H](C(=O)N[C@@H](CC(C)C)C(=O)N[C@H](C(=O)N[C@@H](CC(C)C)C(=O)NCC(=O)N[C@@H](CCCNC(=N)N)C(=O)N[C@@H](CC(C)C)C(=O)N[C@@H](CO)C(=O)N[C@@H](CCC(N)=O)C(=O)N[C@@H](CCC(=O)O)C(=O)N[C@@H](CC(C)C)C(=O)N[C@@H](Cc1c[nH]cn1)C(=O)N[C@@H](CCC(=O)O)C(=O)N[C@@H](CC(C)C)C(=O)N[C@@H](CCC(N)=O)C(=O)N[C@H](C(=O)N[C@@H](Cc1ccc(O)cc1)C(=O)N1CCC[C@H]1C(=O)N[C@@H](CCCNC(=N)N)C(=O)N[C@H](C(=O)N[C@@H](CCC(=O)O)C(=O)N[C@H](C(=O)NCC(=O)N[C@@H](CO)C(=O)N[C@@H](CCC(N)=O)C(=O)N[C@H](C(=O)N[C@@H](Cc1ccc(O)cc1)C(N)=O)[C@@H](C)O)[C@@H](C)O)[C@@H](C)O)[C@@H](C)O)C(C)C)[C@@H](C)O
notes: as for B2
Take B4: the half-inhibitory concentration (IC50) came out at 0.193 nM in assay [1] and 0.225 nM in assay [2].

B5: [N-terminal(C18 diacid-gGlu), des1, 6T, 9V, 14T, 21E, 30T, 31G, 32T]mimylin (peptide)
peptide: {C18 diacid-γGlu}-ASELTTAVLGRLTAELHELETLPRTETGTGTP-NH2
SMILES: CC(C)C[C@H](NC(=O)[C@H](CCC(=O)O)NC(=O)[C@H](C)NC(=O)[C@@H](NC(=O)[C@H](CC(C)C)NC(=O)[C@H](CCCNC(=N)N)NC(=O)CNC(=O)[C@H](CC(C)C)NC(=O)[C@@H](NC(=O)[C@H](C)NC(=O)[C@@H](NC(=O)[C@@H](NC(=O)[C@H](CC(C)C)NC(=O)[C@H](CCC(=O)O)NC(=O)[C@H](CO)NC(=O)[C@H](C)NC(=O)CC[C@H](NC(=O)CCCCCCCCCCCCCCCCC(=O)O)C(=O)O)[C@@H](C)O)[C@@H](C)O)C(C)C)[C@@H](C)O)C(=O)N[C@@H](Cc1c[nH]cn1)C(=O)N[C@@H](CCC(=O)O)C(=O)N[C@@H](CC(C)C)C(=O)N[C@@H](CCC(=O)O)C(=O)N[C@H](C(=O)N[C@@H](CC(C)C)C(=O)N1CCC[C@H]1C(=O)N[C@@H](CCCNC(=N)N)C(=O)N[C@H](C(=O)N[C@@H](CCC(=O)O)C(=O)N[C@H](C(=O)NCC(=O)N[C@H](C(=O)NCC(=O)N[C@H](C(=O)N1CCC[C@H]1C(N)=O)[C@@H](C)O)[C@@H](C)O)[C@@H](C)O)[C@@H](C)O)[C@@H](C)O
notes: as for B2
As for B5, the values for the IC50 in assay [1] and in assay [2] were 0.222 nM and 0.309 nM, respectively.
